Patent US20240391954A1, “MC4R AGONIST PEPTIDES” (The Regents of the University of Michigan, priority 2021, published 2024)
Positions of bridges follow the written chain, without caps; N, C: chain ends. Non-standard residues stand in square brackets, D forms with d. NMeW = CN[C@@H](Cc1c[nH]c2ccccc12)C(=O)O; 2Nal = N[C@@H](Cc1ccc2ccccc2c1)C(=O)O; d2Nal = N[C@H](Cc1ccc2ccccc2c1)C(=O)O; NMeH = CN[C@@H](Cc1c[nH]cn1)C(=O)O; Cit = NC(=O)NCCC[C@H](N)C(=O)O; NMeA = CN[C@@H](C)C(=O)O; Nle = CCCC[C@H](N)C(=O)O; Aib = CC(C)(N)C(=O)O

B1: CTX-1646 (peptide)
peptide: {CH2CO}-G[Cit][dF]RWC-NH2
modifications: thioether N-6
SMILES: N=C(N)NCCC[C@@H]1NC(=O)[C@@H](Cc2ccccc2)NC(=O)[C@H](CCCNC(N)=O)NC(=O)CNC(=O)CSC[C@@H](C(N)=O)NC(=O)[C@H](Cc2c[nH]c3ccccc23)NC1=O
B2: CTX-1650 (peptide)
peptide: {CH2CO}-[Aib]H[dF]RFC-NH2
modifications: thioether N-6
SMILES: CC1(C)NC(=O)CSC[C@@H](C(N)=O)NC(=O)[C@H](Cc2ccccc2)NC(=O)[C@H](CCCNC(=N)N)NC(=O)[C@@H](Cc2ccccc2)NC(=O)[C@H](Cc2c[nH]cn2)NC1=O
B3: CTX-1644 (peptide)
peptide: {CH2CO}-GH[dF]RWC-NH2
modifications: thioether N-6
SMILES: N=C(N)NCCC[C@@H]1NC(=O)[C@@H](Cc2ccccc2)NC(=O)[C@H](Cc2c[nH]cn2)NC(=O)CNC(=O)CSC[C@@H](C(N)=O)NC(=O)[C@H](Cc2c[nH]c3ccccc23)NC1=O
B4: CTX-1267 (peptide)
peptide: Ac-RCAR[dF]RWC-NH2
modifications: disulfide 2-8
SMILES: CC(=O)N[C@@H](CCCNC(=N)N)C(=O)N[C@H]1CSSC[C@@H](C(N)=O)NC(=O)[C@H](Cc2c[nH]c3ccccc23)NC(=O)[C@H](CCCNC(=N)N)NC(=O)[C@@H](Cc2ccccc2)NC(=O)[C@H](CCCNC(=N)N)NC(=O)[C@H](C)NC1=O
B5: CTX-1651 (peptide)
peptide: {CH2CO}-[Aib]R[dF]RFC-NH2
modifications: thioether N-6
SMILES: CC1(C)NC(=O)CSC[C@@H](C(N)=O)NC(=O)[C@H](Cc2ccccc2)NC(=O)[C@H](CCCNC(=N)N)NC(=O)[C@@H](Cc2ccccc2)NC(=O)[C@H](CCCNC(=N)N)NC1=O
B6: CTX-1648 (peptide)
peptide: {CH2CO}-[Aib]R[dF]RWC-NH2
modifications: thioether N-6
SMILES: CC1(C)NC(=O)CSC[C@@H](C(N)=O)NC(=O)[C@H](Cc2c[nH]c3ccccc23)NC(=O)[C@H](CCCNC(=N)N)NC(=O)[C@@H](Cc2ccccc2)NC(=O)[C@H](CCCNC(=N)N)NC1=O
B7: CTX-1653 (peptide)
peptide: {CH2CO}-GH[dF]RFC-NH2
modifications: thioether N-6
SMILES: N=C(N)NCCC[C@@H]1NC(=O)[C@@H](Cc2ccccc2)NC(=O)[C@H](Cc2c[nH]cn2)NC(=O)CNC(=O)CSC[C@@H](C(N)=O)NC(=O)[C@H](Cc2ccccc2)NC1=O
B8: CTX-1657 (peptide)
peptide: {CH2CO}-[dA]R[dF]RFC-NH2
modifications: thioether N-6
SMILES: C[C@H]1NC(=O)CSC[C@@H](C(N)=O)NC(=O)[C@H](Cc2ccccc2)NC(=O)[C@H](CCCNC(=N)N)NC(=O)[C@@H](Cc2ccccc2)NC(=O)[C@H](CCCNC(=N)N)NC1=O
B9: CTX-1265 (peptide)
peptide: Ac-RC[dA]R[dF]R[dF]C-NH2
modifications: disulfide 2-8
SMILES: CC(=O)N[C@@H](CCCNC(=N)N)C(=O)N[C@H]1CSSC[C@@H](C(N)=O)NC(=O)[C@@H](Cc2ccccc2)NC(=O)[C@H](CCCNC(=N)N)NC(=O)[C@@H](Cc2ccccc2)NC(=O)[C@H](CCCNC(=N)N)NC(=O)[C@@H](C)NC1=O
B10: CTX-1263 (peptide)
peptide: Ac-RC[dA]R[dF]R[dW]C-NH2
modifications: disulfide 2-8
SMILES: CC(=O)N[C@@H](CCCNC(=N)N)C(=O)N[C@H]1CSSC[C@@H](C(N)=O)NC(=O)[C@@H](Cc2c[nH]c3ccccc23)NC(=O)[C@H](CCCNC(=N)N)NC(=O)[C@@H](Cc2ccccc2)NC(=O)[C@H](CCCNC(=N)N)NC(=O)[C@@H](C)NC1=O
B11: CTX-1656 (peptide)
peptide: {CH2CO}-[dA]H[dF]RFC-NH2
modifications: thioether N-6
SMILES: C[C@H]1NC(=O)CSC[C@@H](C(N)=O)NC(=O)[C@H](Cc2ccccc2)NC(=O)[C@H](CCCNC(=N)N)NC(=O)[C@@H](Cc2ccccc2)NC(=O)[C@H](Cc2c[nH]cn2)NC1=O
B12: CTX-1645 (peptide)
peptide: {CH2CO}-GR[dF]RWC-NH2
modifications: thioether N-6
SMILES: N=C(N)NCCC[C@@H]1NC(=O)CNC(=O)CSC[C@@H](C(N)=O)NC(=O)[C@H](Cc2c[nH]c3ccccc23)NC(=O)[C@H](CCCNC(=N)N)NC(=O)[C@@H](Cc2ccccc2)NC1=O
B13: CTX-1649 (peptide)
peptide: {CH2CO}-[Aib][Cit][dF]RWC-NH2
modifications: thioether N-6
SMILES: CC1(C)NC(=O)CSC[C@@H](C(N)=O)NC(=O)[C@H](Cc2c[nH]c3ccccc23)NC(=O)[C@H](CCCNC(=N)N)NC(=O)[C@@H](Cc2ccccc2)NC(=O)[C@H](CCCNC(N)=O)NC1=O
B14: CTX-1647 (peptide)
peptide: {CH2CO}-[Aib]H[dF]RWC-NH2
modifications: thioether N-6
SMILES: CC1(C)NC(=O)CSC[C@@H](C(N)=O)NC(=O)[C@H](Cc2c[nH]c3ccccc23)NC(=O)[C@H](CCCNC(=N)N)NC(=O)[C@@H](Cc2ccccc2)NC(=O)[C@H](Cc2c[nH]cn2)NC1=O
B15: CTX-1269 (peptide)
peptide: Ac-RC[NMeA]R[dF]R[dW]C-NH2
modifications: disulfide 2-8
SMILES: CC(=O)N[C@@H](CCCNC(=N)N)C(=O)N[C@H]1CSSC[C@@H](C(N)=O)NC(=O)[C@@H](Cc2c[nH]c3ccccc23)NC(=O)[C@H](CCCNC(=N)N)NC(=O)[C@@H](Cc2ccccc2)NC(=O)[C@H](CCCNC(=N)N)NC(=O)[C@H](C)N(C)C1=O
B16: CTX-1654 (peptide)
peptide: {CH2CO}-GR[dF]RFC-NH2
modifications: thioether N-6
SMILES: N=C(N)NCCC[C@@H]1NC(=O)CNC(=O)CSC[C@@H](C(N)=O)NC(=O)[C@H](Cc2ccccc2)NC(=O)[C@H](CCCNC(=N)N)NC(=O)[C@@H](Cc2ccccc2)NC1=O
B17: CTX-1203 (peptide)
peptide: {CH2CO}-[dA][NMeH][dF]R[NMeW]C-NH2
modifications: thioether N-6
SMILES: C[C@H]1NC(=O)CSC[C@@H](C(N)=O)NC(=O)[C@H](Cc2c[nH]c3ccccc23)N(C)C(=O)[C@H](CCCNC(=N)N)NC(=O)[C@@H](Cc2ccccc2)NC(=O)[C@H](Cc2c[nH]cn2)N(C)C1=O
B18: CTX-2128 (peptide)
peptide: Ac-[Nle]CH[2Nal]R[dW]CRFG-NH2
modifications: disulfide 2-7
SMILES: CCCC[C@H](NC(C)=O)C(=O)N[C@H]1CSSC[C@@H](C(=O)N[C@@H](CCCNC(=N)N)C(=O)N[C@@H](Cc2ccccc2)C(=O)NCC(N)=O)NC(=O)[C@@H](Cc2c[nH]c3ccccc23)NC(=O)[C@H](CCCNC(=N)N)NC(=O)[C@H](Cc2ccc3ccccc3c2)NC(=O)[C@H](Cc2c[nH]cn2)NC1=O

biological target: T1, human MC4R receptor (human, UniProt P32245 1-332); experiment: cell-based or functional assay
T1 sequence (P32245 whole entry): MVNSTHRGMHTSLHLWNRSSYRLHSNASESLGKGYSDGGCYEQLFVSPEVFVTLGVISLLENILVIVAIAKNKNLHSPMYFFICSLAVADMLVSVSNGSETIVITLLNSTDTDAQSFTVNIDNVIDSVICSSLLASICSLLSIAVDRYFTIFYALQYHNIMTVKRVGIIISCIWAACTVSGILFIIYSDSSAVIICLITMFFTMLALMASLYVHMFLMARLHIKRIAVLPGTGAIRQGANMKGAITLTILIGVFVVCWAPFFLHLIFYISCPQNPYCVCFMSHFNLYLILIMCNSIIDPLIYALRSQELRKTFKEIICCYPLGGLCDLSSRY

| % max activation | cAMP EC50 | Binder |
| --- | --- | --- |
| 80% | 13 nM | Ac-RC[dA]R[dF]R[d2Nal]C-NH2 (disulfide 2-8) [CTX-1264] |
| 103% | 13 nM | B1 |
| 113% | 288 nM | B2 |
| 111% | 2.3 nM | B3 |
| 96% | 3 nM | B4 |
| 92% | 1190 nM | B5 |
| 101% | 1.1 nM | B6 |
| 83% | 1220 nM | B7 |
| 78% | 2470 nM | B8 |
|  | 703 nM | B9 |
| 93% | 6.5 nM | B10 |
| 98% | 1400 nM | B11 |
| 110% | 1.6 nM | B12 |
| 97% | 6.6 nM | B13 |
| 109% | 0.68 nM | B14 |
| 92% | 13 nM | B15 |
| 81% | 1090 nM | B16 |
| 109% | 16 nM | B17 |
| 87% | 7210 nM | B18 |

biological target: human MC3R (human, UniProt P41968 1-323); experiment: cell-based or functional assay
Sequence (P41968 whole entry): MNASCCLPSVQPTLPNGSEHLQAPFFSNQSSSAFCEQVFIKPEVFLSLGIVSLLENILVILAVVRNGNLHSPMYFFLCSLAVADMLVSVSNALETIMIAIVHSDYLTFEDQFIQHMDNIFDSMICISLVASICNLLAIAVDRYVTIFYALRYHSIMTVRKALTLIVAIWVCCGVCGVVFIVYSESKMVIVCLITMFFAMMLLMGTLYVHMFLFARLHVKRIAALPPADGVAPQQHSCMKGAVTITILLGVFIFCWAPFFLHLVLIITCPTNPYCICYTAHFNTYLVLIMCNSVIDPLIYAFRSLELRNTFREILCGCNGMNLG

| % max activation | cAMP EC50 | Binder |
| --- | --- | --- |
| 44% | 3.7 nM | Ac-RC[dA]R[dF]R[d2Nal]C-NH2 (disulfide 2-8) [CTX-1264] |
| 70% | 2420 nM | B1 |
| 125% | 15200 nM | B2 |
| 107% | 120 nM | B3 |
| 40% | 12 nM | B4 |
|  | > 10000 nM | B5 |
| 91% | 72 nM | B6 |
|  | > 10000 nM | B7 |
| 30% | 8810 nM | B8 |
|  | 29.9 nM | B9 |
| 69% | 11 nM | B10 |
| 86% | 2300 nM | B11 |
| 97% | 68 nM | B12 |
| 79% | 479 nM | B13 |
| 102% | 21 nM | B14 |
| 39% | 121 nM | B15 |
| 43% | 5890 nM | B16 |
| 107% | 2610 nM | B17 |
| 99% | 39 nM | B18 |

biological target: T1, human MC4R receptor; experiment: cell-based or functional assay; remark: another data set of the same source

| MC4R selectivity vs MC1R | MC4R selectivity vs MC3R | Binder |
| --- | --- | --- |
| 0.14 | 0.29 | Ac-RC[dA]R[dF]R[d2Nal]C-NH2 (disulfide 2-8) [CTX-1264] |
| > 770 | 193 | B1 |
| 0.95 | 53 | B2 |
| 4.84 | 53 | B3 |
| 0.5 | 4.07 | B4 |
| 1.45 | > 8 | B5 |
| 13 | 63 | B6 |
| 0.83 | > 8 | B7 |
| 1.42 | 3.56 | B8 |
| 0.02 |  | B9 |
| 1.73 | 1.62 | B10 |
| 1 | 1.64 | B11 |
| 9.04 | 42 | B12 |
| 1650 | 72 | B13 |
| 3.66 | 30 | B14 |
| 2.56 | 9.31 | B15 |
| 0.62 | 5.41 | B16 |
| 2.32 | 161 | B17 |
|  | 0.01 | B18 |
